Experimental data as given in US20240002531A1 (ONO PHARMACEUTICAL, published 2024).

What was measured:
[1] = target: T1, HER2 peptide 613-632 (amino acids 613 to 632 of human HER2) (human); experiment: ELISA, peptide coated at 10 µg/ml, antibody 10 µg/ml
T1 construct: Synthetic peptide
T1 peptide: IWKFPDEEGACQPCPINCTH

[2] = target: T2, E619A peptide (HER2 603-622 with E619A) (human); experiment: SPR Biacore, mAb on chip, peptide analyte, 1:1 fit;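 note: binding measured at 25 °C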
T2 peptide: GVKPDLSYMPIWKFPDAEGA

[3] = target: T3, A622G peptide (HER2 603-622 with A622G) (human); experiment: SPR Biacore, mAb on chip, peptide analyte, 1:1 fit;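 note: binding measured at 25 °C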
T3 peptide: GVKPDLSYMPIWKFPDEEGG

[4] = target: T4, L608A peptide (HER2 603-622 with L608A) (human); experiment: SPR Biacore, mAb on chip, peptide analyte, 1:1 fit;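 note: binding measured at 25 °C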
T4 peptide: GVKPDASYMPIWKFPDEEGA

[5] = target: T5, D607A peptide (HER2 603-622 with D607A) (human); experiment: SPR Biacore, mAb on chip, peptide analyte, 1:1 fit;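 note: binding measured at 25 °C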
T5 peptide: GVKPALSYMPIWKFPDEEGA

[6] = target: T6, E620A peptide (HER2 603-622 with E620A) (human); experiment: SPR Biacore, mAb on chip, peptide analyte, 1:1 fit;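 note: binding measured at 25 °C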
T6 peptide: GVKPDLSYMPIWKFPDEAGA

[7] = target: T7, P606A peptide (HER2 603-622 with P606A) (human); experiment: SPR Biacore, mAb on chip, peptide analyte, 1:1 fit;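 note: binding measured at 25 °C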
T7 peptide: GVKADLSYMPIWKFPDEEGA

[8] = target: T8, K605A peptide (HER2 603-622 with K605A) (human); experiment: SPR Biacore, mAb on chip, peptide analyte, 1:1 fit
T8 peptide: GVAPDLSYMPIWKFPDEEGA

[9] = target: T9, D618A peptide (HER2 603-622 with D618A) (human); experiment: SPR Biacore, mAb on chip, peptide analyte, 1:1 fit
T9 peptide: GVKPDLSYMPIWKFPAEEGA

[10] = target: T10, G603A peptide (HER2 603-622 with G603A) (human); experiment: SPR Biacore, mAb on chip, peptide analyte, 1:1 fit
T10 peptide: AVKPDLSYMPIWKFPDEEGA

[11] = target: T11, P612A peptide (HER2 603-622 with P612A) (human); experiment: SPR Biacore, mAb on chip, peptide analyte, 1:1 fit
T11 peptide: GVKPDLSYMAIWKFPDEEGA

[12] = target: T12, M611A peptide (HER2 603-622 with M611A) (human); experiment: SPR Biacore, mAb on chip, peptide analyte, 1:1 fit
T12 peptide: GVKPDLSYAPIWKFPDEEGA

[13] = target: T13, V604A peptide (HER2 603-622 with V604A) (human); experiment: SPR Biacore, mAb on chip, peptide analyte, 1:1 fit
T13 peptide: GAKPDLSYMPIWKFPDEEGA

[14] = target: T14, Y610A peptide (HER2 603-622 with Y610A) (human); experiment: SPR Biacore, mAb on chip, peptide analyte, 1:1 fit
T14 peptide: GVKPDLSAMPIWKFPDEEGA

[15] = target: T15, HER2 peptide p603-622 (amino acids 603 to 622 of human HER2) (human); experiment: SPR Biacore, mAb on chip, peptide analyte, 1:1 fit
T15 construct: Synthetic peptide; also called wild-type HER2 peptide
T15 peptide: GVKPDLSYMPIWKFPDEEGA

[16] = target: T16, S609A peptide (HER2 603-622 with S609A) (human); experiment: SPR Biacore, mAb on chip, peptide analyte, 1:1 fit
T16 peptide: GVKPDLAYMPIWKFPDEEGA

[17] = target: T17, P617A peptide (HER2 603-622 with P617A) (human); experiment: SPR Biacore, mAb on chip, peptide analyte, 1:1 fit
T17 peptide: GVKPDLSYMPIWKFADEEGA

[18] = target: T18, G621A peptide (HER2 603-622 with G621A) (human); experiment: SPR Biacore, mAb on chip, peptide analyte, 1:1 fit
T18 peptide: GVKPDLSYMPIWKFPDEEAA

[19] = target: T15, HER2 peptide p603-622 (amino acids 603 …); experiment: SPR Biacore, mAb on chip, peptide analyte, 1:1 fit; Table 2 (deletion mutants series)
[20] = target: T19, W614A peptide (HER2 603-622 with W614A) (human); experiment: SPR Biacore, mAb on chip, peptide analyte (ka N.D.)
T19 peptide: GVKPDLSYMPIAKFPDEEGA

[21] = target: T20, HER2-F616A expressed on CHO-K1 cells (human, UniProt P04626 23-1255); experiment: flow cytometry on CHO-K1 cells expressing HER2-F616A
T20 construct: also called F616A point mutant; not shown: PA tag at the N terminus; RAP tag and MAP tag at the C terminus

B1: H2Mab-214 antibody (antibody, V domains shown)
VH: QVTLKESGPGILQPSQTLSLTCSFSGFSLSTSGMGVSWIRQPSGKGLEWLAHIFWDDDKRYNPSLKSRLTISKDTSRNKVFLKITSVDTADTATYYCARRVVATDWYFDVWGAGTTVTVSS
VL: DIVLTQSPASLAVSLGQRATISCRASESVEYYGTTLMQWYQQKPGQPPKLLIYAASKVESGVPARFSGSGSGTDFSLNIHPVEEDDVAMYFCQQSRKVPLTFGAGTKLELKR
notes: Mouse monoclonal from a hybridoma (immunogen HER2ec made in LN229 cells); also called antibody of the present invention
Does B1 bind [1]?
Result: binds

What about the Kd [2] of the same binder?
The Kd was 66.2 nM.

What about the koff [2] of the same binder?
Its koff is 0.0111 s⁻¹.

And the kon [2]?
The kon was 168000 M⁻¹ s⁻¹.

And the Kd [3]?
The Kd was 15.5 nM.

And the koff [3]?
Its koff is 0.00567 s⁻¹.

What about the kon [3] of the same binder?
Its kon is 366000 M⁻¹ s⁻¹.

And the Kd [4]?
Its Kd is 48.7 nM.

And the koff [4]?
Its koff is 0.00739 s⁻¹.

What about the kon [4] of the same binder?
The kon was 152000 M⁻¹ s⁻¹.

And the Kd [5]?
Its Kd is 17.6 nM.

What about the koff [5] of the same binder?
The koff was 0.00588 s⁻¹.

And the kon [5]?
The kon was 334000 M⁻¹ s⁻¹.

And the Kd [6]?
The Kd was 42 nM.

What about the koff [6] of the same binder?
The koff was 0.00762 s⁻¹.

And the kon [6]?
The kon was 182000 M⁻¹ s⁻¹.

And the Kd [7]?
The Kd was 17.6 nM.

What about the koff [7] of the same binder?
Its koff is 0.00578 s⁻¹.

And the kon [7]?
The kon was 329000 M⁻¹ s⁻¹.

What about the Kd [8] of the same binder?
Its Kd is 26.5 nM.

And the koff [8]?
The koff was 0.00643 s⁻¹.

What about the kon [8] of the same binder?
Its kon is 243000 M⁻¹ s⁻¹.

What about the Kd [9] of the same binder?
Its Kd is 49.1 nM.

What about the koff [9] of the same binder?
The koff was 0.0125 s⁻¹.

And the kon [9]?
Its kon is 254000 M⁻¹ s⁻¹.

What about the Kd [10] of the same binder?
Its Kd is 16.9 nM.

And the koff [10]?
The koff was 0.00564 s⁻¹.

And the kon [10]?
The kon was 335000 M⁻¹ s⁻¹.

And the Kd [11]?
The Kd was 46.8 nM.

What about the koff [11] of the same binder?
The koff was 0.0125 s⁻¹.

And the kon [11]?
Its kon is 267000 M⁻¹ s⁻¹.

And the Kd [12]?
Its Kd is 34.1 nM.

And the koff [12]?
Its koff is 0.00774 s⁻¹.

And the kon [12]?
The kon was 227000 M⁻¹ s⁻¹.

And the Kd [13]?
The Kd was 22.7 nM.

And the koff [13]?
The koff was 0.00619 s⁻¹.

What about the kon [13] of the same binder?
Its kon is 273000 M⁻¹ s⁻¹.

What about the Kd [14] of the same binder?
The Kd was 26.7 nM.

What about the koff [14] of the same binder?
Its koff is 0.00603 s⁻¹.

And the kon [14]?
The kon was 226000 M⁻¹ s⁻¹.

And the Kd [15]?
The Kd was 22.8 nM.

And the koff [15]?
Its koff is 0.00543 s⁻¹.

What about the kon [15] of the same binder?
The kon was 238000 M⁻¹ s⁻¹.

And the Kd [16]?
Its Kd is 33.2 nM.

What about the koff [16] of the same binder?
Its koff is 0.00659 s⁻¹.

And the kon [16]?
The kon was 199000 M⁻¹ s⁻¹.

And the Kd [17]?
The Kd was 43.9 nM.

And the koff [17]?
Its koff is 0.00716 s⁻¹.

And the kon [17]?
Its kon is 163000 M⁻¹ s⁻¹.

And the Kd [18]?
The Kd was 20.4 nM.

What about the koff [18] of the same binder?
The koff was 0.0059 s⁻¹.

And the kon [18]?
Its kon is 290000 M⁻¹ s⁻¹.

What about the kon [19] of the same binder?
The kon was 234000 M⁻¹ s⁻¹.

B2: H2Mab-250 antibody (antibody, V domains shown)
VH: EVQLVESGGGLVQPGGSLKLSCAASGFTFSNYGMSWVRQTPDRRLELVATINNNGGGTYYPDSVKGRFTISRDNAKNTLYLQMSSLKSEDTAMYYCTSPGLLWDAWGAGTTVTVSS
VL: not shown
notes: as for B1
Which results are given for B2?
koff [20]: 0.00438 s⁻¹; binding result [21]: binds; binding result [1]: binds
